This test has as its target T1, hgp130.hFc (human gp130 aa E23-E619 with a hFc tag) (human, UniProt P40189 23-619).
T1 sequence: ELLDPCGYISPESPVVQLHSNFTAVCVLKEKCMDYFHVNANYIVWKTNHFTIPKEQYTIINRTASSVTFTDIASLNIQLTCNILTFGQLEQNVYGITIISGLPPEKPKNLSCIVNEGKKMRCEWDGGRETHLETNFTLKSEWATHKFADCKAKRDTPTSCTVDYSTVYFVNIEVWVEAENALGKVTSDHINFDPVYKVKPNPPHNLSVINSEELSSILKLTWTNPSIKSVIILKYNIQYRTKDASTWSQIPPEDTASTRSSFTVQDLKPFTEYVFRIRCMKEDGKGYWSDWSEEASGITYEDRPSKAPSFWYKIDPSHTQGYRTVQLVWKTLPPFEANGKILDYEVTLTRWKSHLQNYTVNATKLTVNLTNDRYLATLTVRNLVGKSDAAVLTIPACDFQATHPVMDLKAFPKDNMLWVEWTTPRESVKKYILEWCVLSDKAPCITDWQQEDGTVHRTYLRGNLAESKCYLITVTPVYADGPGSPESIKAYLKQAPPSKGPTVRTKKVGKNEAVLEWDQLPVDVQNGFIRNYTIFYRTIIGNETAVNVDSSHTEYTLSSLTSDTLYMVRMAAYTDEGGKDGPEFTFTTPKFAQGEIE
Description: SPR. Background: Surface plasmon resonance follows binding to a sensor surface in real time, without labels.

The values below come from publication PMC11557873 (Nature Communications, 2024).

Positions count from the first letter of the chain named. Names and notes keep the numbering of the source.

B1: short form hOSM WT (hOSM_short, aa A26-R221), C-terminal myc-myc-His (ligand)
chain: AAIGSCSKEYRVLLGQLQKQTDLMQDTSRLLDPYIRIQGLDVPKLREHCRERPGAFPSEETLRGLGRRGFLQTLNATLGCVLHRLADLEQRLPKAQDLERSGLNIEDLEKLQMARPNILGLRNNIYCMAQLLDNSDTAEPTKAGRGASQPPTPTPASDAFQRKLEGCRFLHGYHRFMHSVGRVFSKWGESPNRSRR
As usually defined, the Kd is the equilibrium constant for the complex coming apart. Higher therefore signals a looser complex. Regarding B1, binding was characterised by a dissociation constant (Kd) of 8.58 nM. This lies in the single-digit nanomolar range.

B2: short form hOSM variant C31S/C152S (ligand)
chain: B1 chain with C6S, C127S
Consider B2, for which the Kd came to 69 nM.

B3: short form hOSM mutant V37R (ligand)
chain: B1 chain with V12R
As to B3, the binding result is recorded as “binds”.

B4: short form hOSM variant Δ(A26-E34)/C152S (aa Y35-R221) (ligand)
chain: YRVLLGQLQKQTDLMQDTSRLLDPYIRIQGLDVPKLREHCRERPGAFPSEETLRGLGRRGFLQTLNATLGCVLHRLADLEQRLPKAQDLERSGLNIEDLEKLQMARPNILGLRNNIYSMAQLLDNSDTAEPTKAGRGASQPPTPTPASDAFQRKLEGCRFLHGYHRFMHSVGRVFSKWGESPNRSRR
Molecule B4 registered a Kd of 40.9 nM. In other words, the double-digit nanomolar range.
